The labels stand for the following.
B1: Azoarcus group I ribozyme (parent)
chain: GUGCCUUGCGCCGGGAAACCACGCAAGGGAUGGUGUCAAAUUCGGCGAAACCUAAGCGCCCGCCCGGGCGUAUGGCAACGCCGAGCCAAGCUUCGGCGCCUGCGCCGAUGAAGGUGUAGAGACUAGACGGCACCCACCUAAGGCAAACGCUAUGGUGAAGGCAUAGUCCAGGGAGUGGCGAAAGUCACACAAACCGG

Variants of B1 are the subject of this data set. The data set is described as follows: reverse-splicing fitness (ratio to wild type); higher = more active; in vitro selection; Mg2+ level not given. The procedure, abridged: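 An in vitro group I ribozyme library with randomized positions was T7-transcribed and gel-purified. In triplicate, 10 pmol RNA in EPPS pH 7.5 was reacted with 50 pmoles of a 30-nt RNA substrate for 1 h at 37 °C across several added MgCl2 levels (1–48 mM), then stopped with EDTA. Products were reverse transcribed from a substrate-complementary primer, PCR-amplified and sequenced (HiSeq 4000). Fitness is a variant's read proportion after selection over that before, normalised to wild type.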
In the case of C82U A111U A120G A145C C150A C169G U176A, the reverse-splicing fitness turned out to be 0.0242. As to C82U A111U A120G A145C C150A C169G U176G, the reverse-splicing fitness amounted to 0.00478.

For the variant C82U A111U A120G A145C C150A C169G U176C, the reverse-splicing fitness is 0.0136. Take C82U A111U A120G A145C C150G C169G U176A: the reverse-splicing fitness was 0.00849. As to C82U A111U A120G A145C C150G C169G U176C, the reverse-splicing fitness was 0.0069. In the case of C82U A111U A120C A145C C150G C169G U176A, the reverse-splicing fitness came to 0.00839. The figure for C82U A111U A120C A145C C150G C169G U176C is 0.00632. For C82U A111U A120C A145C C150G C169G U176G, the reverse-splicing fitness was found to be 0.0044.

As for C82U A111U A120C C169U U176C, the reverse-splicing fitness worked out at 0.0164. The figure for C82U A111U A120C C169U U176A is 0.0196. On to C82U A111U A120C C169U U176G, for which the reverse-splicing fitness was 0.00459. Consider C82U A111G C150G C169G U176A, for which the reverse-splicing fitness came out at 0.0075. C82U A111G C150G C169G U176C: the reverse-splicing fitness was found to be 0.00418. With C82U A111G C150G C169G U176G, the reverse-splicing fitness stood at 0.00525.

Consider C82U A111U A120C A145G C150G C169U U176A, for which the reverse-splicing fitness turned out to be 0.0113.

As to C82U A111U A120C A145G C150G C169U U176C, the reverse-splicing fitness worked out at 0.0128. In the case of C82U A111U A120C A145G C150G C169U U176G, the reverse-splicing fitness worked out at 0.00719. As to C82U A111U A120C C150G U176A, the reverse-splicing fitness was found to be 0.00451. The figure for C82U A111U A120C C150G U176C is 0.00725. On to C82U A111U A120C C150G U176G, for which the reverse-splicing fitness came to 0.00352.

For the variant C82U A111U A120C C169A U176A, the reverse-splicing fitness was 0.0152.

Turning to C82U A111U A120C C169A U176C, the reverse-splicing fitness worked out at 0.0138. With C82U A111U A120C C169A U176G the figure was 0.00513; with C82U A111U A120C C150A, 0.0106. In the case of C82U A111U A120C C150U, the reverse-splicing fitness was 0.0179.

Regarding C82U A111U A120C C150G, the reverse-splicing fitness turned out to be 0.00758. With C82U A111U A120C A145U C169A the figure was 0.00631. With C82U A111U A120C A145U C169U the figure was 0.0107; with C82U A111U A120C A145U C169G, 0.00727; with C82U A111U A120C A145G C150A U176G, 0.00675. In the case of C82U A111U A120C A145G C150A U176C, the reverse-splicing fitness is 0.0207. For C82U A111U A120C A145G C150A U176A, the reverse-splicing fitness was found to be 0.0105.

With C82U A111U A120C A145G C150G C169A U176G, the reverse-splicing fitness is 0.00845.

Take C82U A111U A120C A145G C150G C169A U176C: the reverse-splicing fitness was 0.0137. Regarding C82U A111U A120C A145G C150G C169A U176A, the reverse-splicing fitness amounted to 0.0133.

Consider C82U A111U A120C A145U C150U C169G U176G, for which the reverse-splicing fitness was 0.00554. The figure for C82U A111U A120C A145U C150U C169G U176A is 0.011. Consider C82U A111U A120C A145U C150U C169G U176C, for which the reverse-splicing fitness turned out to be 0.0115. Take C82U A111U A120C A145U C150U U176A: the reverse-splicing fitness was found to be 0.0114.

As for C82U A111U A120C A145U C150U U176C, the reverse-splicing fitness came out at 0.0147.

On to C82U A111U A120C A145U C150U U176G, for which the reverse-splicing fitness worked out at 0.0051.

C82U A111G C150U C169U U176G: the reverse-splicing fitness stood at 0.00589. In the case of C82U A111G C150U C169U U176C, the reverse-splicing fitness was determined as 0.0133. C82U A111G C150U C169U U176A: the reverse-splicing fitness was 0.0126.

Consider C82U A111U A120C A145U C169U U176C, for which the reverse-splicing fitness amounted to 0.0136. Consider C82U A111U A120C A145U C169U U176A, for which the reverse-splicing fitness was determined as 0.0155.

Take C82U A111U A120C A145U C169U U176G: the reverse-splicing fitness amounted to 0.00395.

Take C82U A111U A120C A145G C169A: the reverse-splicing fitness amounted to 0.0083.

C82U A111U A120C A145G C169U: the reverse-splicing fitness came out at 0.0112. As to C82U A111U A120C A145G C169G, the reverse-splicing fitness is 0.00779. With C82U A111U A120G A145C C150A U176G the figure was 0.00379. On to C82U A111U A120G A145C C150A U176C, for which the reverse-splicing fitness was determined as 0.00836. Regarding C82U A111U A120G A145C C150A U176A, the reverse-splicing fitness amounted to 0.00746.

On to C82U A111U A120C A145G C150G C169G, for which the reverse-splicing fitness is 0.00731. On to C82U A111U A120C A145G C150G C169A, for which the reverse-splicing fitness stood at 0.00919. On to C82U A111U A120C A145G C150G C169U, for which the reverse-splicing fitness was found to be 0.00911. C82U A111G C150U C169G U176C: the reverse-splicing fitness was 0.0162. C82U A111G C150U C169G U176G: the reverse-splicing fitness came to 0.00558.

For the variant C82U A111G C150U C169G U176A, the reverse-splicing fitness stood at 0.0191.

On to C82U A111U A120C A145C C150G C169U, for which the reverse-splicing fitness was found to be 0.00848. The figure for C82U A111U A120C A145C C150G C169A is 0.00832; for C82U A111U A120C A145C C150G C169G it is 0.00637. As for C82U A111U A120C A145U C150A C169U U176C, the reverse-splicing fitness stood at 0.0156. Turning to C82U A111U A120C A145U C150A C169U U176A, the reverse-splicing fitness was found to be 0.0145. As to C82U A111U A120C A145U C150A C169U U176G, the reverse-splicing fitness came to 0.00498. For C82U A111U A120C C169G U176A, the reverse-splicing fitness came out at 0.0148. In the case of C82U A111U A120C C169G U176C, the reverse-splicing fitness amounted to 0.018. With C82U A111U A120C C169G U176G, the reverse-splicing fitness was found to be 0.0049. C82U A111U A120C A145U C150G U176A: the reverse-splicing fitness stood at 0.00587. As to C82U A111U A120C A145U C150G U176C, the reverse-splicing fitness stood at 0.00709. With C82U A111U A120C A145U C150G U176G, the reverse-splicing fitness stood at 0.00331. Take C82U A111U A120C A145U C150A C169G: the reverse-splicing fitness was 0.00687. Consider C82U A111U A120C A145U C150A C169A, for which the reverse-splicing fitness was 0.00772.

As for C82U A111U A120C A145U C150A C169U, the reverse-splicing fitness turned out to be 0.00908. Consider C82U A111G U176G, for which the reverse-splicing fitness was found to be 0.0517. Regarding C82U A111G U176C, the reverse-splicing fitness is 0.274. With C82U A111G U176A the figure was 0.193; with C82U A111U A120C A145G C150U C169G U176G, 0.00514. As for C82U A111U A120C A145G C150U C169G U176A, the reverse-splicing fitness came out at 0.0128.

As to C82U A111U A120C A145G C150U C169G U176C, the reverse-splicing fitness is 0.016. With C82U A111G C150A U176A the figure was 0.0272. With C82U A111G C150A U176G, the reverse-splicing fitness came to 0.0117. With C82U A111G C150A U176C the figure was 0.0361.

The record behind these values is the RNAGym collection of RNA variant scans (doi:10.1093/molbev/msab373).
